# In patent JP2018153172A (dated 2018):
# B1: ヒト化抗体A AH5−AL4 (antibody, V domains shown)
# VH: EVQLVQSGPELKKPGASVKVSCKASGYTFTDYNMDWVKQRPGQGLEWIGDINSHSGGIIYNQKFKDRVTITADESTSTAYMELTSLTSEDTAVYYCARTYYVYGHFFDYWGQGTLVSVSS
# VL: DIQMTQSPSSLSASVGDRVTITCNVSSSVTSMYWYQQKQGKSPQLLVYLTSNLASGVPSRFSGSGSGTDFTLTISSLQPEDFATYYCQQWSTNPLTFGQGTKVEIK
# notes: VH on human IgG1 constant region (pFUSEss-CHIg-hG1), VL on human kappa constant region (pFUSE2ss-CLIg-hk); also called AH5-AL4
# B2: ヒト化抗体A AH5−AL5 (antibody, V domains shown)
# VH: EVQLVQSGPELKKPGASVKVSCKASGYTFTDYNMDWVKQRPGQGLEWIGDINSHSGGIIYNQKFKDRVTITADESTSTAYMELTSLTSEDTAVYYCARTYYVYGHFFDYWGQGTLVSVSS
# VL: DIQMTQSPASLSASVGETVTITCNVSSSVTSMYWYQQKPGKAPKLLIYLTSNLASGVPARFSGSGSGTEFTLTISSLQPDDFATYYCQQWSTNPLTFGAGTKLDLK
# notes: VH on human IgG1 constant region (pFUSEss-CHIg-hG1), VL on human kappa constant region (pFUSE2ss-CLIg-hk); also called AH5-AL5
# B3: ヒト化抗体A AH7−AL1 (antibody, V domains shown)
# VH: EVQLVQSGAEVKKPGATVKISCKASGYTFTDYNMDWVRQAPGQGLEWIGDINSHSGGIIYNQKFKDWVTMTRDTSINTAYMELRLRSDDTAVYYCARTYYVYGHFFDYWGQGTLVTVSA
# VL: DIQMTQSPSSLSASVGDRVTITCNVSSSVTSMYWYQQKPGKAPKLLIYLTSNLASGVPARFSGSGSGTEFTLTISSLQPDDFATYYCQQWSTNPLTFGAGTKLDLK
# notes: VH on human IgG1 constant region (pFUSEss-CHIg-hG1), VL on human kappa constant region (pFUSE2ss-CLIg-hk); also called AH7-AL1
# B4: ヒト化抗体A AH7−AL3 (antibody, V domains shown)
# VH: EVQLVQSGAEVKKPGATVKISCKASGYTFTDYNMDWVRQAPGQGLEWIGDINSHSGGIIYNQKFKDWVTMTRDTSINTAYMELRLRSDDTAVYYCARTYYVYGHFFDYWGQGTLVTVSA
# VL: DIQMTQSPSTLSASVGDRVTITCNVSSSVTSMYWYQQKPGKAPKLLIYLTSNLASGVPARFSGSGSGTEFTLTISSLQPDDFATYYCQQWSTNPLTFGQGTKVEVK
# notes: VH on human IgG1 constant region (pFUSEss-CHIg-hG1), VL on human kappa constant region (pFUSE2ss-CLIg-hk); also called AH7-AL3
# B5: ヒト化抗体A AH7−AL4 (antibody, V domains shown)
# VH: EVQLVQSGAEVKKPGATVKISCKASGYTFTDYNMDWVRQAPGQGLEWIGDINSHSGGIIYNQKFKDWVTMTRDTSINTAYMELRLRSDDTAVYYCARTYYVYGHFFDYWGQGTLVTVSA
# VL: DIQMTQSPSSLSASVGDRVTITCNVSSSVTSMYWYQQKQGKSPQLLVYLTSNLASGVPSRFSGSGSGTDFTLTISSLQPEDFATYYCQQWSTNPLTFGQGTKVEIK
# notes: VH on human IgG1 constant region (pFUSEss-CHIg-hG1), VL on human kappa constant region (pFUSE2ss-CLIg-hk); also called AH7-AL4
# B6: ヒト化抗体A AH7−AL5 (antibody, V domains shown)
# VH: EVQLVQSGAEVKKPGATVKISCKASGYTFTDYNMDWVRQAPGQGLEWIGDINSHSGGIIYNQKFKDWVTMTRDTSINTAYMELRLRSDDTAVYYCARTYYVYGHFFDYWGQGTLVTVSA
# VL: DIQMTQSPASLSASVGETVTITCNVSSSVTSMYWYQQKPGKAPKLLIYLTSNLASGVPARFSGSGSGTEFTLTISSLQPDDFATYYCQQWSTNPLTFGAGTKLDLK
# notes: VH on human IgG1 constant region (pFUSEss-CHIg-hG1), VL on human kappa constant region (pFUSE2ss-CLIg-hk); also called AH7-AL5
# B7: ヒト化抗体A AH7−AL2 (antibody, V domains shown)
# VH: EVQLVQSGAEVKKPGATVKISCKASGYTFTDYNMDWVRQAPGQGLEWIGDINSHSGGIIYNQKFKDWVTMTRDTSINTAYMELRLRSDDTAVYYCARTYYVYGHFFDYWGQGTLVTVSA
# VL: DIQMTQSPSSLSASVGDRVTITCNVSSSVTSMYWYQQKQGKSPQLLVYLTSNLASGVPSRFSGSGSGTQFSLKINNLQPEDFGSYYCQQWSTNPLTFGAGTKLDLK
# notes: VH on human IgG1 constant region (pFUSEss-CHIg-hG1), VL on human kappa constant region (pFUSE2ss-CLIg-hk); also called AH7-AL2
# B8: ヒト化抗体A AH7−AL6 (antibody, V domains shown)
# VH: EVQLVQSGAEVKKPGATVKISCKASGYTFTDYNMDWVRQAPGQGLEWIGDINSHSGGIIYNQKFKDWVTMTRDTSINTAYMELRLRSDDTAVYYCARTYYVYGHFFDYWGQGTLVTVSA
# VL: EIVLTQSPATLSLSPGERATLSCNVSSSVTSMYWYQQKPGQAPRLLIYLTSNLASGIPDRFSGSGSGTDFTLTISRLEPEDFAVYYCQQWSTNPLTFGQGTKVEIK
# notes: VH on human IgG1 constant region (pFUSEss-CHIg-hG1), VL on human kappa constant region (pFUSE2ss-CLIg-hk); also called AH7-AL6
# B9: ヒト化抗体A AH7−AL7 (antibody, V domains shown)
# VH: EVQLVQSGAEVKKPGATVKISCKASGYTFTDYNMDWVRQAPGQGLEWIGDINSHSGGIIYNQKFKDWVTMTRDTSINTAYMELRLRSDDTAVYYCARTYYVYGHFFDYWGQGTLVTVSA
# VL: DIQMTQSPSTLSASIGDRVTITCNVSSSVTSMYWFQQRPGQAPKVLIYLTSNLASGVPSRFSGSGSGTDFTFTISSLQPEDIATYYCQQWSTNPLTFGGGTKVDIK
# notes: VH on human IgG1 constant region (pFUSEss-CHIg-hG1), VL on human kappa constant region (pFUSE2ss-CLIg-hk); also called AH7-AL7
# B10: ヒト化抗体A AH7−AL8 (antibody, V domains shown)
# VH: EVQLVQSGAEVKKPGATVKISCKASGYTFTDYNMDWVRQAPGQGLEWIGDINSHSGGIIYNQKFKDWVTMTRDTSINTAYMELRLRSDDTAVYYCARTYYVYGHFFDYWGQGTLVTVSA
# VL: ELVLTQSPGTLSLSAGERATLSCNVSSSVTSMYWYQQKPGKAPKLLIYLTSNLASGAPSRFSGSGSGTDFTLTISSLQPDDFATYYCQQWSTNPLTFGGGTKLEIK
# notes: VH on human IgG1 constant region (pFUSEss-CHIg-hG1), VL on human kappa constant region (pFUSE2ss-CLIg-hk); also called AH7-AL8
# B11: ヒト化抗体A AH8−AL4 (antibody, V domains shown)
# VH: EVQLVQSGAEVKKPGASVKVSCKASGYTFTDYNMDWVRQAPGKGLEWVGDINSHSGGIIYNQKFKDRVTITADRSTSTVYMELSGLRSEDTAVYYCARTYYVYGHFFDYWGKGTLVTVSS
# VL: DIQMTQSPSSLSASVGDRVTITCNVSSSVTSMYWYQQKQGKSPQLLVYLTSNLASGVPSRFSGSGSGTDFTLTISSLQPEDFATYYCQQWSTNPLTFGQGTKVEIK
# notes: VH on human IgG1 constant region (pFUSEss-CHIg-hG1), VL on human kappa constant region (pFUSE2ss-CLIg-hk); also called AH8-AL4
# B12: ヒト化抗体A AH9−AL7 (antibody, V domains shown)
# VH: EVQLVESGGGLVQPGGSLRLSCKASGYTFTDYNMDWVRQAPGKGLEWVGDINSHSGGIIYNQKFKDRFTISADTSKNTAYLQMNSLRAEDTAVYYCARTYYVYGHFFDYWGQGTLVTVSS
# VL: DIQMTQSPSTLSASIGDRVTITCNVSSSVTSMYWFQQRPGQAPKVLIYLTSNLASGVPSRFSGSGSGTDFTFTISSLQPEDIATYYCQQWSTNPLTFGGGTKVDIK
# notes: VH on human IgG1 constant region (pFUSEss-CHIg-hG1), VL on human kappa constant region (pFUSE2ss-CLIg-hk); also called AH9-AL7
# B13: ヒト化抗体AH2−2AL4F1 (antibody, human IgG1, kappa, V domains shown)
# VH: QVQLQQPGAELVQPGTSVRLSCKASGYTFTDYNMDWVKQRPGQGLEWIGDINSHSGGIIYNQKFKDKATLTVDKSSSTAYMQLSSLTSEDSAVYYCARTYYVYGHFFDYWGQGTLVTVSA
# VL: DIQMTQSPSSLSASVGDRVTITCNVSSSVTSMYWYQQKQGKSPQLLVYLTSNLASGVPSRFSGSGSGTQFSLKINNLQPEDFGSYYCQQWSTNPLTFGQGTKLDLKR
# notes: also called AH2−2L4F1
# B14: ヒト化抗体AH2−2L6E6 (antibody, human IgG1, kappa, V domains shown)
# VH: QVQLQQPGAELVQPGTSVRLSCKASGYTFTDYNMDWVKQRPGQGLEWIGDINSHSGGIIYNQKFKDKATLTVDKSSSTAYMQLSSLTSEDSAVYYCARTYYVYGHFFDYWGQGTLVTVSA
# VL: ELVLTQSPGTLSLSAGERATLSCNVSSSVTSMYWYQQKPGKAPKLLIYLTSNLASGVPSRFSGSGSGTDYTFTISSLQPEDIATYYCQQWSTNPLTFGQGTKVEIKR
# B15: ヒト化抗体AH2−2L14A10 (antibody, human IgG1, kappa, V domains shown)
# VH: QVQLQQPGAELVQPGTSVRLSCKASGYTFTDYNMDWVKQRPGQGLEWIGDINSHSGGIIYNQKFKDKATLTVDKSSSTAYMQLSSLTSEDSAVYYCARTYYVYGHFFDYWGQGTLVTVSA
# VL: DIQMTQSPSTLSASIGDRVTITCNVSSSVTSMYWYQQKPGKAPKLLIYLTSNLASGVPSRFSGSGSGTDFTLTISSLQPEDFATYYCQQWSTNPLTFGQGTKLEIKR
# Target: T1, 可溶性ヒトgp130受容体 (soluble human gp130 receptor, extracellular region of SEQ ID NO 1 with six histidines) (human, UniProt P40189 23-619)
# T1 construct: Secreted from CHO DG44 cells and purified on HisTrap; no cleavage site is stated; also called 可溶性ヒトgp130受容体タンパク質; ヒト可溶性gp130受容体
# T1 sequence: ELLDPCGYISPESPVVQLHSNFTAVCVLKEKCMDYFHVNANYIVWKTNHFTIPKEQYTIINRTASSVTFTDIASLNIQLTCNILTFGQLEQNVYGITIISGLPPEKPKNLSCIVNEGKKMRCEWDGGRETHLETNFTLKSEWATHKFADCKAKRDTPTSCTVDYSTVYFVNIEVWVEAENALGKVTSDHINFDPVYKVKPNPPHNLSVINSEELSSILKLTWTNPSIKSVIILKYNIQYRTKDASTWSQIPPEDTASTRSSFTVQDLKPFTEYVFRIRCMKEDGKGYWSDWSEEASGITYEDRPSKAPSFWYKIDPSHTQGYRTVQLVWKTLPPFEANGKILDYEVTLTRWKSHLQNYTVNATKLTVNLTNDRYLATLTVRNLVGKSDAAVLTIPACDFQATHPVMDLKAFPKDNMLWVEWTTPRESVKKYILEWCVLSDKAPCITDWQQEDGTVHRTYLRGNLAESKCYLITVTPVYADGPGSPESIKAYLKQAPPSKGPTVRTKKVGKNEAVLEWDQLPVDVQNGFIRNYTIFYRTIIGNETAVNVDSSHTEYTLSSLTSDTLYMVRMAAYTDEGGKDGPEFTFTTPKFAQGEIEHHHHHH
# Assay: ELISA, immobilised soluble human gp130, COS1 supernatant, anti-human antibody-HRP
row,Binder,binding result
1,B1,binds
2,B2,binds
3,B3,binds
4,B4,binds
5,B5,binds
6,B6,binds
7,B7,binds
8,B8,binds
9,B9,binds
10,B10,binds
11,B11,binds
12,B12,binds

# Target: T1, 可溶性ヒトgp130受容体 (soluble human gp130 …)
# Assay: SPR, Biacore T200, gp130 on CM5, antibody as analyte
Binder,Kd [nM],koff [s⁻¹],kon [M⁻¹ s⁻¹]
B13,1.98,0.000221,111000
B14,0.991,0.000209,211000
B15,1.3,0.000202,155000
